PMC7963221

Legend:
Assay in all cases: FACS
A021 RBD = molecular target: A021 RBD
CS24 RBD = molecular target: CS24 RBD
Civet 007-2004 RBD = molecular target: Civet 007-2004 RBD
Frankfurt 1 RBD = molecular target: Frankfurt 1 RBD
GD-Pangolin RBD = molecular target: GD-Pangolin RBD
LYRa11 RBD = molecular target: LYRa11 RBD
RaTG13 RBD = molecular target: RaTG13 RBD
Rs4231 RBD = molecular target: Rs4231 RBD
SHC014 RBD = molecular target: SHC014 RBD
WIV1 RBD = molecular target: WIV1 RBD

S309 gave a Kd (A021 RBD) of 4.14 nM, a Kd (CS24 RBD) of 2.52 nM and a Kd (Civet 007-2004 RBD) of 3.75 nM. For the same substance, the Kd (Frankfurt 1 RBD) was 3.5 nM, the Kd (GD-Pangolin RBD) was 4.53 nM and the Kd (LYRa11 RBD) was 4.53 nM. It also gave a Kd (RaTG13 RBD) of 2.88 nM, a Kd (Rs4231 RBD) of 3.77 nM and a Kd (SHC014 RBD) of 3.78 nM. It also gave a Kd (WIV1 RBD) of 3.89 nM.
For REGN10933, the Kd (GD-Pangolin RBD) was 0.64 nM.
REGN10987 showed a Kd (GD-Pangolin RBD) of 1.44 nM.
LY-CoV555 gave a Kd (GD-Pangolin RBD) of 1.3 nM.
With CB6/LY-CoV16 the Kd (GD-Pangolin RBD) was 2.15 nM and the Kd (RaTG13 RBD) was 3.6 nM.
